# According to the RNAGym collection of RNA variant scans (doi:10.7554/elife.80360):
# B1: Hairpin Ribozyme (parent)
# chain: GUCCUCUUUCACGUGCGCGUGAAAGAGAGAAGUGAACCAGAGAAACACACGUUGUGGUAUAUUACCUGGUA
# Variants of: B1
# Assay: self-cleavage, relative activity (ratio to wild type); higher = more cleavage; co-transcriptional
row,Variant,self-cleavage
1,GUCCUCUUUCAAGUGCGCGUGAAAGAGAGAAGUCAACCAGAGAAACACACGUUGUGGUAUAUUACCUGGUA,1.17
2,GUCCUCUUUCAGGUGCGCGUGAAAGAGAGAAGUGAACCAGAGAAACACACGUUGUGGUAUCUUACCUGGUA,0.24
3,GUCCUCUUUCAGGUGCGCGUGAAAGAGAGAAGUGUACCAGAGAAACACACGUUGUGGUAUAUUACCUGGUA,0.731
4,GUCCUCUUUCAGGUGCGCGUGAAAGAGAGAAGUGCACCAGAGAAACACACGUUGUGGUAUAUUACCUGGUA,0.74
5,GUCCUCUUUCAGGUGCGCGUGAAAGAGAGAAGUGAACCAGAGAAACAUACGUUGUGGUAUAUUACCUGGUA,0.193
6,GUCCUCUUUCAGGUGCGCGUGAAAGAGAGAAGUGAACCAGAGAAACAGACGUUGUGGUAUAUUACCUGGUA,0.0599
7,GUCCUCUUUCAAGUGCGCGUGAAAGAGAGAAGUGAACCAGAGAAACACACGUUGUGCUAUAUUACCUGGUA,0.17
8,GUCCUCUUUCAGGUGCGCGUGAAAGAGAGAAGUGAACCAGAGAAACACACGUUGUGGUCUAUUACCUGGUA,0.076
9,GUCCUCUUUCAAGUGCGCGUCAAAGAGAGAAGUGAACCAGAGAAACACACGUUGUGGUAUAUUACCUGGUA,0.808
10,GUCCUCUUUCAAGUGCGCGUUAAAGAGAGAAGUGAACCAGAGAAACACACGUUGUGGUAUAUUACCUGGUA,0.752
11,GUCCUCUUUCAAGUGCGCGUGAAAGAGAGAAGUGAACCAGAGAAACACACGUUAUGGUAUAUUACCUGGUA,0.485
12,GUCCUCUUUCAAGUGCGCGGGAAAGAGAGAAGUGAACCAGAGAAACACACGUUGUGGUAUAUUACCUGGUA,0.732
13,GUCCUCUUUCAAGUGAGCGUGAAAGAGAGAAGUGAACCAGAGAAACACACGUUGUGGUAUAUUACCUGGUA,0.964
14,GUCCUCUUUCAGGUGCGCGUGAAAGAGAGAAGUGAACCAGAGAAACACACGUUGUGGUAUAUUACCUGGUG,0.803
15,GUCCUCUUUCAAGUGCGCGUGAAAGAGAGAAGUGAACCAGAGAAACACACGUUGUUGUAUAUUACCUGGUA,0.159
16,GUCCUCUUUCAAGUGCGCGUGAAAGAGAGAAGUGAACCAGAGAAACACACGUUGUCGUAUAUUACCUGGUA,0.0797
17,GUCCUCUUUCAAGUGCGCGUGAAAGAGAGAAGUGAACCAGAGAAACACACGUUGUGGUAUAGUACCUGGUA,0.143
18,GUCCUCUUUCAAGUGCGCGUGAAAGAGAGAAGUGAACCAGAGAAACACACGUUGUGGUAGAUUACCUGGUA,0.459
19,GUCCUCUUUCAAGUGCGCGUGAAAGAGAGAAGUGAACCAGAGAAACACACGUUGUGGUACAUUACCUGGUA,0.893
20,GUCCUCUUUCAAGUGCGCGUGAAAGAGAGAAGUGAACCAGAGAAACACACGUUGUGGUAAAUUACCUGGUA,0.621
21,GUCCUCUUUCAGGUGCGCGUGAAAGAGAGAAGUGAACCAGAGACACACACGUUGUGGUAUAUUACCUGGUA,0.202
22,GUCCUCUUUCAAGUGCGCGUGAAAGAGAGAAGUGAACCAGAGAAACACAUGUUGUGGUAUAUUACCUGGUA,0.399
23,GUCCUCUUUCAAGUGCGCGUGAAAGAGAGAAGUGAACCAGAGAAACACACGUUGUGGUAUAUUACCUGGAA,0.673
24,GUCCUCUUUCAGGUGCGCGUGAAAGAGAGAAGUGAACCUGAGAAACACACGUUGUGGUAUAUUACCUGGUA,0.32
25,GUCCUCUUUCAAGUGCGCGUGAAAGAGAGAAGUGAACCAGAGAAACACACGUUGAGGUAUAUUACCUGGUA,0.288
26,GUCCUCUUUCAAGUGCGCGUGAAAGAGAGAAGUGAACCAGAGAAACACACGUUGUGGUAUAUUACCUGUUA,0.251

row,Variant,self-cleavage
1,GUCCUCUUUCAAGUGCGCGUGAAAGAGAGAAGUGAACCAGAGAAACACACGUUGUGGUAUAUUACCUGCUA,0.275
2,GUCCUCUUUCAAGUGCGCGUGAAAGAGAGAAGUGAACCAGAGAAACACACGUUGUGGUAUAUUACAUGGUA,0.259
3,GUCCUCUUUCAAGUGCGCGUGAAAGAGAGAAGUGAACCAGAGAAACACACGUUGUGGUAUAUUACGUGGUA,0.208
4,GUCCUCUUUCAGGUGCGCGUGAAAGAGAGAAGUGAACCAGUGAAACACACGUUGUGGUAUAUUACCUGGUA,1.25
5,GUCCUCUUUCAAGUGCGCGUGAAAGAGAGAAGUGAACCAGAGAAACAUACGUUGUGGUAUAUUACCUGGUA,0.112
6,GUCCUCUUUCAGGUGCGCGUGAAAGAGAGAAGUGAAUCAGAGAAACACACGUUGUGGUAUAUUACCUGGUA,0.445
7,GUCCUCUUUCAAUUGCGCGUGAAAGAGAGAAGUGAACCAGAGAAACACACGUUGUGGUAUAUUACCUGGUA,0.673
8,GUCCUCUUUCAGGUGCGCGUGAAAGAGCGAAGUGAACCAGAGAAACACACGUUGUGGUAUAUUACCUGGUA,0.561
9,GUCCUCUUUCAGGUGCGCGUGAAAGAGUGAAGUGAACCAGAGAAACACACGUUGUGGUAUAUUACCUGGUA,0.57
10,GUCCUCUUUCAGGUGCGCGUGAAAGAGAGAAGUGAACAAGAGAAACACACGUUGUGGUAUAUUACCUGGUA,0.148
11,GUCCUCUUUCAGGUGCGCGUGAAAGAGAGAAGUGAACGAGAGAAACACACGUUGUGGUAUAUUACCUGGUA,0.142
12,GUCCUCUUUCAGGUGCGCGUGAAAGAGAGAAGUGAACCAGAGUAACACACGUUGUGGUAUAUUACCUGGUA,0.196
13,GUCCUCUUUCAGGUGCGCGUGAAAGAGAGAAGUGAACCAGAGGAACACACGUUGUGGUAUAUUACCUGGUA,0.139
14,GUCCUCUUUCAGGUGCGCGUGAAAGAGAGAAGUGAACCAGAGCAACACACGUUGUGGUAUAUUACCUGGUA,0.125
15,GUCCUCUUUCAGGUGCGCGUGAAAGAGAGAAGUGAUCCAGAGAAACACACGUUGUGGUAUAUUACCUGGUA,0.517
16,GUCCUCUUUCAAGUGCGCGUGAAAGAGACAAGUGAACCAGAGAAACACACGUUGUGGUAUAUUACCUGGUA,0.0897
17,GUCCUCUUUCAAGUGCGCGUGAAAGAGAUAAGUGAACCAGAGAAACACACGUUGUGGUAUAUUACCUGGUA,0.201
18,GUCCUCUUUCAAGUGCGCGUGAAAGAGAAAAGUGAACCAGAGAAACACACGUUGUGGUAUAUUACCUGGUA,0.162
19,GUCCUCUUUCAAGUGCGCGUGAAAGAGAGAAGUGAACCAGAAAAACACACGUUGUGGUAUAUUACCUGGUA,0.168
20,GUCCUCUUUCAAGUGCGCGUGAAAGAGAGAACUGAACCAGAGAAACACACGUUGUGGUAUAUUACCUGGUA,0.0893
21,GUCCUCUUUCAGGUGCGCGUGAAAGAGAGAAGUGAACCAGAGAAACACCCGUUGUGGUAUAUUACCUGGUA,0.196
22,GUCCUCUUUCAAGUGCGCGUGAAAGAGAGAAGUGAACCAGAGAAACACACGUUGUGGUAUAUAACCUGGUA,0.102
23,GUCCUCUUUCAAGUGCGCGUGAAAGAGAGAAGUGAACCAGAGAAACACACGUUGUGGUAUAUGACCUGGUA,0.213
24,GUCCUCUUUCAAGUGCGCGUGAAAGAGAGAAGUGAACCAGAGAAACACACGAUGUGGUAUAUUACCUGGUA,0.763
25,GUCCUCUUUCAAGUGCGCGUGAAAGAGAGAAGUGAACCAGAGAAACACACGCUGUGGUAUAUUACCUGGUA,0.768
26,GUCCUCUUUCAAGUGCGUGUGAAAGAGAGAAGUGAACCAGAGAAACACACGUUGUGGUAUAUUACCUGGUA,0.834

row,Variant,self-cleavage
1,GUCCUCUUUCAAGUGCGGGUGAAAGAGAGAAGUGAACCAGAGAAACACACGUUGUGGUAUAUUACCUGGUA,0.872
2,GUCCUCUUUCAAGUGCGCGUGAAAGAUAGAAGUGAACCAGAGAAACACACGUUGUGGUAUAUUACCUGGUA,0.249
3,GUCCUCUUUCAAGUGCGCGUGAAAGAAAGAAGUGAACCAGAGAAACACACGUUGUGGUAUAUUACCUGGUA,0.378
4,GUCCUCUUUCAAGUGCGCGUGAAAGAGAGAAGUGAACCAGAGAAACACACGUUGUGGUAUAUUAUCUGGUA,0.309
5,GUCCUCUUUCAAGUGCGCGUGAAAGAGAGAAGAGAACCAGAGAAACACACGUUGUGGUAUAUUACCUGGUA,0.158
6,GUCCUCUUUCAGGUGCGCGUGAAAGAGAGAAGUGAACCAGAGAAUCACACGUUGUGGUAUAUUACCUGGUA,0.116
7,GUCCUCUUUCAAGUGCGCGUGAAAGAGAGAAGUGAACCAGAGAAACACACGUUGUGGUAUAUUGCCUGGUA,0.411
8,GUCCUCUUUCAGGUGCGCGUGAAAGGGAGAAGUGAACCAGAGAAACACACGUUGUGGUAUAUUACCUGGUA,0.75
9,GUCCUCUUUCAAGUGCGCCUGAAAGAGAGAAGUGAACCAGAGAAACACACGUUGUGGUAUAUUACCUGGUA,0.944
10,GUCCUCUUUCAGGUGCGCGUGAAAGAGAGAAGUGAACCAGAGAAACACACGUUGUGGUAUAUUUCCUGGUA,0.173
11,GUCCUCUUUCAGGUGCGCGUGAAAGAGAGAAGUGAACCAGAGAAACACACGUUGUGGUAUAUUCCCUGGUA,0.334
12,GUCCUCUUUCAAGUGCGCGUGAAAGAGAGAAGUGAACCAGAGAAACACACGUUGUGGUAUAUUACCUGGUG,0.848
13,GUCCUCUUUCAAGUGCGCGUGAAAGAGAGAAGUGAACCAGAGAAACACACGUUGUGGAAUAUUACCUGGUA,0.733
14,GUCCUCUUUCAAGUGCGCGUGAAAGAGAGAAGUGAACCAGAGAAACACACGUUGUGGCAUAUUACCUGGUA,0.686
15,GUCCUCUUUCAGGUGCGCGUGAAAGAGAGAGGUGAACCAGAGAAACACACGUUGUGGUAUAUUACCUGGUA,0.455
16,GUCCUCUUUCAGGUGCGCGUGAAAGAGAGAUGUGAACCAGAGAAACACACGUUGUGGUAUAUUACCUGGUA,0.152
17,GUCCUCUUUCAAGUUCGCGUGAAAGAGAGAAGUGAACCAGAGAAACACACGUUGUGGUAUAUUACCUGGUA,0.805
18,GUCCUCUUUCAAGUCCGCGUGAAAGAGAGAAGUGAACCAGAGAAACACACGUUGUGGUAUAUUACCUGGUA,0.837
19,GUCCUCUUUCAAGUACGCGUGAAAGAGAGAAGUGAACCAGAGAAACACACGUUGUGGUAUAUUACCUGGUA,0.801
20,GUCCUCUUUCAAGUGCGCGUGAAAGAGAGAAGUGAACCAGAGAAACACACGUAGUGGUAUAUUACCUGGUA,0.785
21,GUCCUCUUUCAAGUGCGCGUGAAAGAGAGAAGUGAACCAGAGAAACACACGUGGUGGUAUAUUACCUGGUA,0.587
22,GUCCUCUUUCAGGUGCGCGUGAAAGAGAGAAGUGAACCAGAGAAACACAGGUUGUGGUAUAUUACCUGGUA,0.176
23,GUCCUCUUUCAAGUGCGCGUGAAAGAGAGAAGUGAACAAGAGAAACACACGUUGUGGUAUAUUACCUGGUA,0.18
24,GUCCUCUUUCAAGUGCGCGUGAAAGAGAGAAGUGAACCAGAGAAACACACAUUGUGGUAUAUUACCUGGUA,0.898
